Assay results: article PMC10797690, “The SIRT3-ATAD3A axis regulates MAM dynamics and mitochondrial calcium homeostasis in cardiac hypertrophy” (International Journal of Biological Sciences, 2024)

B1: ATAD3A-Flag [not stated] / itself (parent)
chain: MSWLFGIKGPKGEGTGPPLPLPPAQPGAESGGDRGAGDRPSPKDKWSNFDPTGLERAAKAARELEHSRHAKEALNLAQMQEQTLQLEQQSKLKEYEAAVEQLKSEQIRVQAEERRKTLNEETRQHQARAQYQDKLARQRYEDQLKQQQLLNEENLRKQEESVQKQEAIRRATVEREMELRHKNEMLRVEAEARARAKADRENADIIREQIRLKAAEHRQTILESIRTAGTLFGEGFRAFVTDWDKVTATVAGLTLLAVGVYSAKNATSVAGRYIEARLGKPSLVRETSRISVLEALRHPIQVSRRLVSRPQDALEGVILSPSLEARVRDIAIATRNTKKNKSLYRNVLMYGPPGTGKTLFAKKLALHSGMDYAIMTGGDVAPMGREGVTAMHKVFDWASTSRRGLLLFVDEADAFLRKRATEKISEDLRATLNAFLHRTGQHSNKFMLVLASNQPEQFDWAINDRIDEMVCFALPQREERERLVRMYFDKYVLKPATEGKQRLKVAQFDYGKKCSEVAQLTAGMSGREIAQLAVAWQAMAYSSEDGVLTEAMMDARVQDAVQQHQQKMQWLKVERPDSEASKPPHPSLLSC

Variants of: B1
Assay: native gel electrophoresis (-DTT), anti-Flag immunoblot, oligomer band quantified
Settings: with itself, H9c2 cells, n = 3, mean ± SEM, parent: 1, read off a plot

| response | Variant |
| --- | --- |
| 0.16 arbitrary | MSWLFGIKGPKGEGTGPPLPLPPAQPGAESGGDRGAGDRPSPKDKWSNFDPTGLERAAKAARELEHSRHAKEALNLAQMQEQTLQLEQQSKLKEYEAAVEQLKSEQIRVQAEERRKTLNEETRQHQARAQYQDQLARQRYEDQLKQQQLLNEENLRKQEESVQKQEAIRRATVEREMELRHKNEMLRVEAEARARAKADRENADIIREQIRLKAAEHRQTILESIRTAGTLFGEGFRAFVTDWDKVTATVAGLTLLAVGVYSAKNATSVAGRYIEARLGKPSLVRETSRISVLEALRHPIQVSRRLVSRPQDALEGVILSPSLEARVRDIAIATRNTKKNKSLYRNVLMYGPPGTGKTLFAKKLALHSGMDYAIMTGGDVAPMGREGVTAMHKVFDWASTSRRGLLLFVDEADAFLRKRATEKISEDLRATLNAFLHRTGQHSNKFMLVLASNQPEQFDWAINDRIDEMVCFALPQREERERLVRMYFDKYVLKPATEGKQRLKVAQFDYGKKCSEVAQLTAGMSGREIAQLAVAWQAMAYSSEDGVLTEAMMDARVQDAVQQHQQKMQWLKVERPDSEASKPPHPSLLSC [chain 1 K134Q] |
| 1 arbitrary | MSWLFGIKGPKGEGTGPPLPLPPAQPGAESGGDRGAGDRPSPKDKWSNFDPTGLERAAKAARELEHSRHAKEALNLAQMQEQTLQLEQQSKLKEYEAAVEQLKSEQIRVQAEERRKTLNEETRQHQARAQYQDELARQRYEDQLKQQQLLNEENLRKQEESVQKQEAIRRATVEREMELRHKNEMLRVEAEARARAKADRENADIIREQIRLKAAEHRQTILESIRTAGTLFGEGFRAFVTDWDKVTATVAGLTLLAVGVYSAKNATSVAGRYIEARLGKPSLVRETSRISVLEALRHPIQVSRRLVSRPQDALEGVILSPSLEARVRDIAIATRNTKKNKSLYRNVLMYGPPGTGKTLFAKKLALHSGMDYAIMTGGDVAPMGREGVTAMHKVFDWASTSRRGLLLFVDEADAFLRKRATEKISEDLRATLNAFLHRTGQHSNKFMLVLASNQPEQFDWAINDRIDEMVCFALPQREERERLVRMYFDKYVLKPATEGKQRLKVAQFDYGKKCSEVAQLTAGMSGREIAQLAVAWQAMAYSSEDGVLTEAMMDARVQDAVQQHQQKMQWLKVERPDSEASKPPHPSLLSC [chain 1 K134E] |
| 0.42 arbitrary | MSWLFGIKGPKGEGTGPPLPLPPAQPGAESGGDRGAGDRPSPKDKWSNFDPTGLERAAKAARELEHSRHAKEALNLAQMQEQTLQLEQQSKLKEYEAAVEQLKSEQIRVQAEERRKTLNEETRQHQARAQYQDALARQRYEDQLKQQQLLNEENLRKQEESVQKQEAIRRATVEREMELRHKNEMLRVEAEARARAKADRENADIIREQIRLKAAEHRQTILESIRTAGTLFGEGFRAFVTDWDKVTATVAGLTLLAVGVYSAKNATSVAGRYIEARLGKPSLVRETSRISVLEALRHPIQVSRRLVSRPQDALEGVILSPSLEARVRDIAIATRNTKKNKSLYRNVLMYGPPGTGKTLFAKKLALHSGMDYAIMTGGDVAPMGREGVTAMHKVFDWASTSRRGLLLFVDEADAFLRKRATEKISEDLRATLNAFLHRTGQHSNKFMLVLASNQPEQFDWAINDRIDEMVCFALPQREERERLVRMYFDKYVLKPATEGKQRLKVAQFDYGKKCSEVAQLTAGMSGREIAQLAVAWQAMAYSSEDGVLTEAMMDARVQDAVQQHQQKMQWLKVERPDSEASKPPHPSLLSC [chain 1 K134A] |
